Measured values: paper PMC2807882, “Conservation of DNA-binding specificity and oligomerisation properties within the p53 family”

T1: ΔNp73β (Homo sapiens, UniProt O15350-9 1-450)
T1 sequence: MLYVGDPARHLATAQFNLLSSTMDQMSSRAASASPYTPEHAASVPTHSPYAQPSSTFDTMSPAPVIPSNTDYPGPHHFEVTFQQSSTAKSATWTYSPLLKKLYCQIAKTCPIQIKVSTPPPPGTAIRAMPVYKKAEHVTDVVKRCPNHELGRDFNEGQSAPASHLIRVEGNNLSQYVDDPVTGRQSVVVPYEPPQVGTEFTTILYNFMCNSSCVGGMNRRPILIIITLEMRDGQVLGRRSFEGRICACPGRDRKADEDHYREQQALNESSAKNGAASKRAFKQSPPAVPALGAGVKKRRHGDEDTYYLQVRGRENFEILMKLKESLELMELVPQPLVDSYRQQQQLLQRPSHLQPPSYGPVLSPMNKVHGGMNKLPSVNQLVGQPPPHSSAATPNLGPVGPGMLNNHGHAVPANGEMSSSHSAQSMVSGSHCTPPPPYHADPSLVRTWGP

T2: Dmp53 (Drosophila melanogaster, UniProt Q9N6D8 1-385)
T2 sequence: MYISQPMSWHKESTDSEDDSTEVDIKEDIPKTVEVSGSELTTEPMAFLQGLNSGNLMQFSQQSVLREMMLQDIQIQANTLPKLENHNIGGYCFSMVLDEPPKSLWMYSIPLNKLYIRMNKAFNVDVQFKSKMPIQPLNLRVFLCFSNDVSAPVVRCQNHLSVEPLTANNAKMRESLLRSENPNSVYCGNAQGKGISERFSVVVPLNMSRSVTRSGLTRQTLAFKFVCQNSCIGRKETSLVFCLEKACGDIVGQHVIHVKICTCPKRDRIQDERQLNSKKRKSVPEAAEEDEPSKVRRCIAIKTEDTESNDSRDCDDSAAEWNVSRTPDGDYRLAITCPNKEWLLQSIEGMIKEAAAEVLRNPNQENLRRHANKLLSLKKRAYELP

T3: ΔNp63β (Homo sapiens, UniProt Q9H3D4-4 1-461)
T3 sequence: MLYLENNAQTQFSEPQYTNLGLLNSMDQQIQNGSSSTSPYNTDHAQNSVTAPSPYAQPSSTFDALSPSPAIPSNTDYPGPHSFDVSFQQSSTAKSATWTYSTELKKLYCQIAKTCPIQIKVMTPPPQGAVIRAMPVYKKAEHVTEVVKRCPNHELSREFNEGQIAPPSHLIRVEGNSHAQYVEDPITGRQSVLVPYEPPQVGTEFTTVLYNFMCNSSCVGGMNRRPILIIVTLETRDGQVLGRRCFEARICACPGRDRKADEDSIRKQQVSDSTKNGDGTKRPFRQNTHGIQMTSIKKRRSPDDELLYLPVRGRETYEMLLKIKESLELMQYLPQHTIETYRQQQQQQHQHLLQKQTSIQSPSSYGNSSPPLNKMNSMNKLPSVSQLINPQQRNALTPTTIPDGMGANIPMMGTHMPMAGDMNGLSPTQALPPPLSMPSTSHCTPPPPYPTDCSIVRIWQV

T4: Drp53 (Danio rerio, UniProt P79734 1-373)
T4 sequence: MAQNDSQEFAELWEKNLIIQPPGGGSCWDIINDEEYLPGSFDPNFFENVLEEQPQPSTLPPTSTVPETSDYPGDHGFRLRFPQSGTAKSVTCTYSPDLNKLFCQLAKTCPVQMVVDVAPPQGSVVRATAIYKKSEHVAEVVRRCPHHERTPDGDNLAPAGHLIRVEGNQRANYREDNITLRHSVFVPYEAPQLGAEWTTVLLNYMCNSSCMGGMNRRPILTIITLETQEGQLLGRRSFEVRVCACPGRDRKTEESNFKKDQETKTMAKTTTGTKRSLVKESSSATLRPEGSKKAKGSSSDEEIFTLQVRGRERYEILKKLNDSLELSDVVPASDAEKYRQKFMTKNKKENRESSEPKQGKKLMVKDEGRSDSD

T5: ΔNp63γ (Homo sapiens, UniProt Q9H3D4-6 1-393)
T5 sequence: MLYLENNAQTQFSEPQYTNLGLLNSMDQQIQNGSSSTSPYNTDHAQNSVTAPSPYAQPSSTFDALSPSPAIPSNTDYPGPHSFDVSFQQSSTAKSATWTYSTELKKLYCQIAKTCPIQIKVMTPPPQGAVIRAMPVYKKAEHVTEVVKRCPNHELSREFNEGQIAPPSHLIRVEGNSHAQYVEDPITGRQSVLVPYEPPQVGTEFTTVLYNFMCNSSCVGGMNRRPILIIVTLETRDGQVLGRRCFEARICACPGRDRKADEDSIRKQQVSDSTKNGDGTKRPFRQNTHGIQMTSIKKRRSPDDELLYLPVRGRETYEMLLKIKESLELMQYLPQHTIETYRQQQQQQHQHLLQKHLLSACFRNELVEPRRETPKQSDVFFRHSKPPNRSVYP

T6: ΔNp63α (Homo sapiens, UniProt Q9H3D4-2 1-586)
T6 sequence: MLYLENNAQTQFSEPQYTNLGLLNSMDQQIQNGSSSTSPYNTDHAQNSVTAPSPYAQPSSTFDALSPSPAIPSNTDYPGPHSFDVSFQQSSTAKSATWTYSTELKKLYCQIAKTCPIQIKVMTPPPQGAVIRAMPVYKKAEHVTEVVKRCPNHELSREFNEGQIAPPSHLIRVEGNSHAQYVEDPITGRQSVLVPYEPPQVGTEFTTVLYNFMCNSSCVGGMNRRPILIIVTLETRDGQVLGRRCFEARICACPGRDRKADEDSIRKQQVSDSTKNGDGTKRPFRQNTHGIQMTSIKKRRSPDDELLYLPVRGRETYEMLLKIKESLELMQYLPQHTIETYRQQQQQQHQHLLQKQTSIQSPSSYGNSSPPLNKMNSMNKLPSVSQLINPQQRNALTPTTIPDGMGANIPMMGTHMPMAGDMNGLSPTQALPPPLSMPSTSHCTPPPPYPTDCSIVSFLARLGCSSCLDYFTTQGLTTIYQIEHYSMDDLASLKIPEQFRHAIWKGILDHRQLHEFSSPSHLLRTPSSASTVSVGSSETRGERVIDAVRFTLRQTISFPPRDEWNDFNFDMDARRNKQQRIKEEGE

B1: G7C (dsDNA)
DNA 1: CGCGGACATCTCCGGACATGTCCCGC
DNA 2: GCGGGACATGTCCGGAGATGTCCGCG
B2: G2C (dsDNA)
DNA 1: CGCGCACATGTCCGGACATGTCCCGC
DNA 2: GCGGGACATGTCCGGACATGTGCGCG
B3: A5C (dsDNA)
DNA 1: CGCGGACCTGTCCGGACATGTCCCGC
DNA 2: GCGGGACATGTCCGGACAGGTCCGCG
B4: T6C (dsDNA)
DNA 1: CGCGGACACGTCCGGACATGTCCCGC
DNA 2: GCGGGACATGTCCGGACGTGTCCGCG
B5: A3C (dsDNA)
DNA 1: CGCGGCCATGTCCGGACATGTCCCGC
DNA 2: GCGGGACATGTCCGGACATGGCCGCG
B6: A5G (dsDNA)
DNA 1: CGCGGACGTGTCCGGACATGTCCCGC
DNA 2: GCGGGACATGTCCGGACACGTCCGCG

These binders were tested against T1, ΔNp73β (assay: anisotropy competition; 25 mM NaPi, 225 mM NaCl, 10% v/v glycerol, 5 mM DTT, 0.2 mg/mL BSA, 22°C; 20 nM labelled DNA; pH not stated for the binding assay). Conditions: protein: recombinant; tags: N-terminal 6xHis-lipoyl-TEV tag, cleaved; chain copies: 4.

Binder | binding signal
B1 | 1.8 ΔlogKd vs ref
B2 | 0.44 ΔlogKd vs ref
B3 | 0.64 ΔlogKd vs ref
B4 | 0.62 ΔlogKd vs ref

The binders below were run against T2, Dmp53 in the same assay as above. Conditions: protein: recombinant; tags: N-terminal 6xHis-lipoyl-TEV tag, cleaved; chain copies: 4.

Binder | binding signal
B1 | 1.51 ΔlogKd vs ref
B3 | 0.54 ΔlogKd vs ref
B4 | 0.25 ΔlogKd vs ref
B5 | 0.75 ΔlogKd vs ref

These binders were tested against T3, ΔNp63β in the same assay as above. Conditions: protein: recombinant; tags: N-terminal 6xHis-lipoyl-TEV tag, cleaved; chain copies: 4.

Binder | binding signal
B1 | 1.45 ΔlogKd vs ref
B2 | 0.36 ΔlogKd vs ref
B3 | 0.57 ΔlogKd vs ref
B4 | 0.57 ΔlogKd vs ref

Each binder was assayed against T4, Drp53 in the same assay as above. Conditions: protein: recombinant; tags: N-terminal 6xHis-lipoyl-TEV tag, cleaved; chain copies: 4.

Binder | binding signal
B1 | 1.3 ΔlogKd vs ref
B2 | 0.41 ΔlogKd vs ref
B3 | 0.77 ΔlogKd vs ref
B4 | 0.65 ΔlogKd vs ref

What follows are binders tested against T7, Xlp53 (Xenopus laevis, UniProt Q7T1D0 1-362) in the same assay as above. Conditions: protein: recombinant; tags: N-terminal 6xHis-lipoyl-TEV tag, cleaved; chain copies: 4.
T7 sequence (Q7T1D0 entry or part of it): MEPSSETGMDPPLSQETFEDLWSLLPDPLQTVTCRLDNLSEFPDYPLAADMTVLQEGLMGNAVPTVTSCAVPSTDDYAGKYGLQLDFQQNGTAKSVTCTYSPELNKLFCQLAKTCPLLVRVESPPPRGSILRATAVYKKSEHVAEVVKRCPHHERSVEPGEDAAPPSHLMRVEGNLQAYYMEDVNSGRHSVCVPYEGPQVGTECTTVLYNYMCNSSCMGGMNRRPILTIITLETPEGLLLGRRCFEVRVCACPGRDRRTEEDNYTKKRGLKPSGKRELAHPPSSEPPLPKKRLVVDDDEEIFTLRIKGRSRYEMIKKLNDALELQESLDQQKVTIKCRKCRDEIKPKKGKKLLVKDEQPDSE

Binder | binding signal
B2 | 0.27 ΔlogKd vs ref
B3 | 0.48 ΔlogKd vs ref
B4 | 0.7 ΔlogKd vs ref
B5 | 0.82 ΔlogKd vs ref

The binders below were run against T5, ΔNp63γ in the same assay as above. Conditions: protein: recombinant; tags: N-terminal 6xHis-lipoyl-TEV tag, cleaved; chain copies: 4.

Binder | binding signal
B1 | 1.68 ΔlogKd vs ref
B2 | 0.37 ΔlogKd vs ref
B3 | 0.58 ΔlogKd vs ref
B4 | 0.52 ΔlogKd vs ref
B5 | 0.93 ΔlogKd vs ref

Each binder was assayed against Mmp53 (Mus musculus, UniProt P02340 1-390) in the same assay as above. Conditions: protein: recombinant; tags: N-terminal 6xHis-lipoyl-TEV tag, cleaved; chain copies: 4.
Mmp53, sequence (P02340 whole entry): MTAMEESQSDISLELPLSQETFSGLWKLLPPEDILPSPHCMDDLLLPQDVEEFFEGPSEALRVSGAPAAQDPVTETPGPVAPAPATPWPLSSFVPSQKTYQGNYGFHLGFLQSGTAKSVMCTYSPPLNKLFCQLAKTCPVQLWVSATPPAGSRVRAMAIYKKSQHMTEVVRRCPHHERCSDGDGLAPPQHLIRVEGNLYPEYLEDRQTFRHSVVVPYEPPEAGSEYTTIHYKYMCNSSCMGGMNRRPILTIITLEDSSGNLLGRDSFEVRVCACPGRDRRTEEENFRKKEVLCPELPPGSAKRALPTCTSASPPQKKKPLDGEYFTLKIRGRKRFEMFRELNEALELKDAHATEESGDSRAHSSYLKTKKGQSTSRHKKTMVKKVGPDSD

Binder | binding signal
B1 | 0.67 ΔlogKd vs ref
B2 | 0.28 ΔlogKd vs ref
B3 | 0.4 ΔlogKd vs ref
B4 | 0.36 ΔlogKd vs ref
B5 | 0.46 ΔlogKd vs ref

What follows are binders tested against T6, ΔNp63α in the same assay as above. Conditions: protein: recombinant; tags: N-terminal 6xHis-lipoyl-TEV tag, cleaved; chain copies: 4.

Binder | binding signal
B1 | 1.33 ΔlogKd vs ref
B2 | 0.15 ΔlogKd vs ref
B3 | 0.3 ΔlogKd vs ref
B4 | 0.25 ΔlogKd vs ref

What follows are binders tested against Hsp53 (Homo sapiens, UniProt P04637 1-393) in the same assay as above. Conditions: protein: recombinant; tags: N-terminal 6xHis-lipoyl-TEV tag, cleaved; chain copies: 4.
Hsp53, sequence (P04637 whole entry): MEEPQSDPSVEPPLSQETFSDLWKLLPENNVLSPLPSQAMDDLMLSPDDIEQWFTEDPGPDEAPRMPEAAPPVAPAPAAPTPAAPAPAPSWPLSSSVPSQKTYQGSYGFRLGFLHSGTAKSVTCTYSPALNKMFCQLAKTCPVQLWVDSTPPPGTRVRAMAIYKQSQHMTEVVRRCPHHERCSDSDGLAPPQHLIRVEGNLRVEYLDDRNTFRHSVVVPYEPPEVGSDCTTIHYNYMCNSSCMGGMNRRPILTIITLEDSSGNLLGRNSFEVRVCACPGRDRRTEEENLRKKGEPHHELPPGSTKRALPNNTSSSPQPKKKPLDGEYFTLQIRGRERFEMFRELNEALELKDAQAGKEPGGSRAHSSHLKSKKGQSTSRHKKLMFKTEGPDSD

Binder | binding signal
B1 | 0.9 ΔlogKd vs ref
B2 | 0.37 ΔlogKd vs ref
B3 | 0.45 ΔlogKd vs ref
B4 | 0.53 ΔlogKd vs ref
B5 | 0.66 ΔlogKd vs ref

Target: T7, Xlp53
Experiment: as above
Conditions: protein: recombinant; tags: N-terminal 6xHis-lipoyl-TEV tag, cleaved; chain copies: 4
Remark: another data set of the same source

Binder | Kd
B6 | -6.64 log10(M)
B1 | -5.7 log10(M)
